Where “and” joins values, the source holds several entries; their conditions need not be identical. Equal entries are not always repeated.
Legend:
Experiment in all cases: peptide-array ELISA [Con't]
CG2RL2APLRK2…2RLC = biological target: CG2RL2APLRK2…2RLC
PE2LS2…2…2 = biological target: PE2LS2…2…2
[1] = biological target: Y2…2…
…2RPG = biological target: …2RPG
LSCGSR2…2T2 = biological target: LSCGSR2…2T2
[2] = biological target: NWVPE2…
NRI2…2R = biological target: NRI2…2R
E2LSCGSR2…2T = biological target: E2LSCGSR2…2T
QNRI2…2R = biological target: QNRI2…2R
[3] = biological target: WY2…
WY2…, sequence (peptide, as listed by the source): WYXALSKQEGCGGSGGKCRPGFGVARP

[4] = biological target: DVV2…
PE2LSCGSR2…2T = biological target: PE2LSCGSR2…2T
[5] = biological target: Y2…
Y2…, sequence (peptide, as listed by the source): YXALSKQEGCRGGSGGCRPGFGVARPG

[6] = biological target: LWNWVPE2…
LWNWVPE2…, sequence (peptide, as listed by the source): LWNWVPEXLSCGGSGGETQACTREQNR

…2…2RPGW = biological target: …2…2RPGW
PE2LS2…2RPG = biological target: PE2LS2…2RPG
LSKQEG2…2APGTFSN = biological target: LSKQEG2…2APGTFSN
…2…2R = biological target: …2…2R
WNWVPE2…2T2 = biological target: WNWVPE2…2T2
[7] = biological target: …2GGSGGL2…
LS2…2TREQNRIC = biological target: LS2…2TREQNRIC
C2…22SK2SPGQHC = biological target: C2…22SK2SPGQHC
E2LS2…2RPGW = biological target: E2LS2…2RPGW
…2…2TSTSPTRC = biological target: …2…2TSTSPTRC
NWVPE2…2 = biological target: NWVPE2…2
2LSCGSR2…2 = biological target: 2LSCGSR2…2
LCAPLRK2…2APGTFSN = biological target: LCAPLRK2…2APGTFSN
CDQVETQA2…2TSTSPTRC = biological target: CDQVETQA2…2TSTSPTRC
E2LSCGSR2…2 = biological target: E2LSCGSR2…2
LSCGSR2…2 = biological target: LSCGSR2…2
CAPLRK2…2RLC = biological target: CAPLRK2…2RLC
[8] = biological target: EGCRL2…
EGCRL2…, sequence (peptide, as listed by the source): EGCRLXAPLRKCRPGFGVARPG

…2RPGW = biological target: …2RPGW
CQA2TREQNRI2T2…2TSTSPTRC = biological target: CQA2TREQNRI2T2…2TSTSPTRC
[9] = biological target: CG2RL2APLRK2RPGFCQA2TREQNRI2T2RPC
[10] = biological target: …2AGGSGGL2…
2RLCAPLRK2…2APGTFSN = biological target: 2RLCAPLRK2…2APGTFSN
[11] = biological target: E2LS2…2…
E2LS2…2RPG = biological target: E2LS2…2RPG
[12] = biological target: 2…2…
[13] = biological target: KQEGCRL2…
KQEGCRL2…, sequence (peptide, as listed by the source): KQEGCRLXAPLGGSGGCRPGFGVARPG

E2LS2…2TREQNRIC = biological target: E2LS2…2TREQNRIC
VPE2LS2…2RPG = biological target: VPE2LS2…2RPG
WVPE2…2T = biological target: WVPE2…2T
WVPE2…2T2 = biological target: WVPE2…2T2
[14] = biological target: SKQEGCRL2…
SKQEGCRL2…, sequence (peptide, as listed by the source): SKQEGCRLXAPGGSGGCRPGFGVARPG

LWNWVPE2…2T2 = biological target: LWNWVPE2…2T2
[15] = biological target: …2…
PE2LSCGSR2…2 = biological target: PE2LSCGSR2…2
PE2LS2…2RPGW = biological target: PE2LS2…2RPGW
CAPLRK2…2APGTFSN = biological target: CAPLRK2…2APGTFSN
[16] = biological target: VPE2LS2…2…
…2…2RPG = biological target: …2…2RPG
RLCAPLRK2…2APGTFSN = biological target: RLCAPLRK2…2APGTFSN

NWVPE2…, sequence (peptide, as listed by the source): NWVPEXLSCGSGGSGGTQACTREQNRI
…2RPG, sequence (peptide, as listed by the source): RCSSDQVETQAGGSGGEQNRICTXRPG

## agonistic TNFR2 antibody MR2-1
CG2RL2APLRK2…2RLC
  Raw luminescence data: 252
PE2LS2…2…2
  Raw luminescence data: 262
[1]
  Raw luminescence data: 245
…2RPG
  Raw luminescence data: 257
LSCGSR2…2T2
  Raw luminescence data: 226
[2]
  Raw luminescence data: 229
NRI2…2R
  Raw luminescence data: 229
E2LSCGSR2…2T
  Raw luminescence data: 225
QNRI2…2R
  Raw luminescence data: 242
[3]
  Raw luminescence data: 254
[4]
  Raw luminescence data: 243
PE2LSCGSR2…2T
  Raw luminescence data: 275
[5]
  Raw luminescence data: 256
[6]
  Raw luminescence data: 260
…2…2RPGW
  Raw luminescence data: 270
PE2LS2…2RPG
  Raw luminescence data: 277
LSKQEG2…2APGTFSN
  Raw luminescence data: 247
…2…2R
  Raw luminescence data: 225
WNWVPE2…2T2
  Raw luminescence data: 247
[7]
  Raw luminescence data: 250
LS2…2TREQNRIC
  Raw luminescence data: 232
C2…22SK2SPGQHC
  Raw luminescence data: 263
E2LS2…2RPGW
  Raw luminescence data: 233
…2…2TSTSPTRC
  Raw luminescence data: 267
NWVPE2…2
  Raw luminescence data: 258
2LSCGSR2…2
  Raw luminescence data: 251
LCAPLRK2…2APGTFSN
  Raw luminescence data: 262
CDQVETQA2…2TSTSPTRC
  Raw luminescence data: 251
E2LSCGSR2…2
  Raw luminescence data: 262
LSCGSR2…2
  Raw luminescence data: 274
CAPLRK2…2RLC
  Raw luminescence data: 227
[8]
  Raw luminescence data: 239
…2RPGW
  Raw luminescence data: 276 and 272
CQA2TREQNRI2T2…2TSTSPTRC
  Raw luminescence data: 274
[9]
  Raw luminescence data: 244
[10]
  Raw luminescence data: 254
2RLCAPLRK2…2APGTFSN
  Raw luminescence data: 245
[11]
  Raw luminescence data: 233
E2LS2…2RPG
  Raw luminescence data: 314
[12]
  Raw luminescence data: 299
[13]
  Raw luminescence data: 352
E2LS2…2TREQNRIC
  Raw luminescence data: 299
VPE2LS2…2RPG
  Raw luminescence data: 295
WVPE2…2T
  Raw luminescence data: 312
WVPE2…2T2
  Raw luminescence data: 287
[14]
  Raw luminescence data: 288
LWNWVPE2…2T2
  Raw luminescence data: 353
[15]
  Raw luminescence data: 342 and 337
PE2LSCGSR2…2
  Raw luminescence data: 312
PE2LS2…2RPGW
  Raw luminescence data: 305
CAPLRK2…2APGTFSN
  Raw luminescence data: 293
[16]
  Raw luminescence data: 301
…2…2RPG
  Raw luminescence data: 304
RLCAPLRK2…2APGTFSN
  Raw luminescence data: 320

— patent publication US20250243290A1
